Assay results as given in the nanobody polyreactivity screen of Harvey et al. (2022).

Test: yeast display, Sf9 membrane polyspecificity reagent, FACS + sequencing; frameworks hold sequencing errors
Method in brief: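 Genes from sorted yeast were amplified by colony PCR, read by MiSeq 2 × 250 sequencing and filtered on CDR length. These cells carried a synthetic nanobody library in Saccharomyces cerevisiae BJ5465 and were sorted by FACS into low and high (top ~1%) gates on anti-HA and streptavidin fluorescence. Polyreactivity is labelled according to the gate of origin.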

| Sequence | polyreactivity (PSR sort gate) |
| --- | --- |
| QVQLVESGGGLVQAGGSLRLSCAASGSIYRYNDMGWYRQAPGKERELVATITSGTNTYYADSVKGRFTISRDNAKNTVYLQMNSLKPEDTAVYYCAKSYIAWDGRTFEEMYYWGQGTQVTVSS | low polyreactivity |
| QVQLVESGGGLVQAGGSLRLSCAASGRIFVYNAMGWYRQAPGKEWELVATITSGGSTYYADSVKGRFTISRDNAMNTVYLQMNSLKPEDTAVYYCAARRWYVHYFAYGYWGQGTQVTVSS | low polyreactivity |
| QVLLVESGGGIVQAGGSLRLSCAASGIIFYVNAMGWYRQAPGKERELVAAITFGGDSTYYADSVKGRFTISRDNAKNTVYLQMNSLKPEDTAVYYCATDGDPAYPEMEYWGQGTQVTVSS | low polyreactivity |
| QVQLVESGGGLVQAGGSLRLSCAASGFTFWYYSMGWYRQAPGKERELVASISRTGGTTYYADSVKGRFTISRDNAKNTVYLQLNSLKPEDTAVYYCNARPKVYYREYDYWGQGTQVTVSS | high polyreactivity |
| QVQLVESGGGLVQAGGSLRLSCAASGFISLRNTMGWYRQAPGKERELVAAINWSGGSTYYADSVKGRFTISRDNAKNTVYLQMNSLKPEDTAVYYCAKGPWPPIYRLFPGYAKFGYWGQGTQVTVSS | low polyreactivity |
| QVQLVESGGGLVQAGGSLRLSCAASGRIFYANAMGWYRQAPGKERELVAAISSGGSTYYADSVKGRFTISRDNAKNTVYLQMNSLKPEDTAVYYCAVYTHKKVRPEYDYWGQGTQVTVSS | low polyreactivity |
| QVQLVESGGGLVQAGGSLRLSCAASGSIFYYYAMGWYRQAPGKERELVAAISTSSGRTYYADSVKGRFTISRDNAKNTVYLQMNSLKPEDTAVYYCATRYRRDGGSWGQGTQVTVSS | high polyreactivity |
| QVQLVESGGGLVQAGGSLRISCAASGITFYGYDMGWYRQAPGKERELVAAISKSGGSTHYADSVKGRFTISRDNAKNTVYLQMNSLKPEDTAVYYCAAAYWTRLRRMDYWGQGTQVTVSS | high polyreactivity |
| QVQLVESGGGLVQAGGSLRLTCAASGRTFFVYAMGWYRPAPGKERELVASITLSGGSTYYADSVKGRFTISRDNAKNTVYLQMNSLKPEDTAVYYCAKGWSRDNDREREDEYWGQGTQVTVSS | low polyreactivity |
| QVQLVESGRGLVQAGGSLRLSCAASGRIFSGNAMGWYRQAPGKERELVAGITWTGGRTYYAASVKGRFTISRDNAKNTVYLQMNSLKPEDTAVYYCAARYTRWSDLMYYWGQGTQVTVSS | high polyreactivity |
| QVQLEESGGGLVQAGGSLRLSCAASGRTFTLNAMGWYRQAPGKEREFVAAISNSGVRTYYADSVKGRFTISRDNAKNTVYLQMNSLKPEDTAVYYCARTYQVGDSIDDYWGQGTQVTVSS | low polyreactivity |
| QVQHVESGAGLVQAAGSLRLSCAASGSTFSSYALGWYRQAPGKERELVAAISHGDSTYYADSVKGRFTISRDNAKNTVYLQMNSLKPEDSAVYYCAALHEVWGVDYWGQGTHVTVSS | low polyreactivity |
| QVQLVESGGGLVQAGGSLRLSCAASGFTFNFYVMGWYRQAPGKERELVAAITSNGGSTYYADSVKGRFTISRDNAKNTVYLQMNSLKPEDTAVYYCAADQYPTWSYLPFDYWGQGTQVTVSS | high polyreactivity |
| QVQLVESGGGLVQAGGSLRLSCAASGSIFEWYAMGWYRQAPGKASALVAAISSGGRTYYADSVKGRFTISRDNAKNTVYLQMISLKPEDTAVYYCAARDVDHVGGSKYYYWGLGTQVTVSS | high polyreactivity |
| QVQLVESGGGLVKAGGSLRLSCASSGSTFVGNAMGWYRQAPGKERELVAAISVNDGTTYYADSVKGRFTISRDNAKNTVYLQMNSLKPEDTAVDYCNVKRYGCRSDYWGQGTQVTVSS | high polyreactivity |
| QVQLVESGGGLVQAGGSLRLSCAASGRSFRPYARGWYRQAPGKERELVAAISSSGGSTYYADSVKGRFTISRDNAKNTVYLQMNSLKPEDTAVYYCATYFARGYNSWGQGTQVTVSS | high polyreactivity |
| QVQLVESGGRLVQAGGSLRLTCAASGSTIYQYVMRWYRQAPGKERELVAVITWSGGRTYYADSVKGRFTISRDNAKNTVYLQMNSLKPEDTAGYYCAADPLSGYDYWGQGTHVTVSS | low polyreactivity |
| QVQLVESGGGLVQAGGSLRFSCAASGSTFTRYAMGWYRQAPGKERELVAAISWSGGITYYADSVNGRFTISRDNAKNTVYLQMNSLKPEDTAVYYCAAKRRYTRGGYGVDYWGQGTQVTVSS | high polyreactivity |
| QVQHVESGGGLVQAGCSLRLSCAASGRTFTYYAMGWYRQARGKESELVATISWRGSSTYYADSVKGRFTISRDNAKNTVYLQMNSLKPEDTAFYYCAARTYRWGYEDNYWGQGTQVTVSS | high polyreactivity |
| QVQLVESGGGLVQAGGSLRLSSAASGIIFPGYAMVWYRQAPGKERELVAAISSGGDTYYADSVKGRFTISRDNAKNTVYLQMNSLKPEDTGVYYCTAAQLSSDRTSNYGYYPWYEYWGQGTQVTVSS | low polyreactivity |

| Sequence | polyreactivity (PSR sort gate) |
| --- | --- |
| QVQLVESGGGLVQAGGSLRLSCAASGSIFPPNAMGWSRQAPGKERELVAAISFSGGTSTYYADSVKGRFTISRDNAKNTVYLQMNSLKPEDTAVYYCAARKTTRRYHYDYWGQGTQVTVSS | high polyreactivity |
| QVQLVESGGGLVQAGGSNRLSCADSGLIFGFNTMGSYRQAPAKEREMVAVISSSGGSTYYADSVKARFTISRDNAKKTVYFQMNSLKPEDTAVYYSAARAYPVRYRRRDYWGQGTQVTVSS | high polyreactivity |
| QVQLVESGGGLVQAGGSLRLSCAASGLTFNVYAMGWYRQAPGKERELVASITKRGGSTYYADSVKGRFTISRDNAKNTVYLEMNSLKPEDTAVYYCAADGLTGSKYRATGYYWGQGTQVTVSS | high polyreactivity |
| QVQLVESGGGLVQAGGSLRVSCAASGSTFTAYAMGWYRQAPGKERELVAAINWSGGTTYYADSVKGRFTISRDNAKNTVYLQMNSLKPEDTAVYYCAVDGNFFGEVRPYDYWGQGTQVTVSS | low polyreactivity |
| QVQLVESSGGLVQAGCSLRLSCAASGFTFGYYAMGWYRQAPGKERELVAAISRSGGRTYYADSVKGRFTISRDKAKNTVYLQMNSLNPEDTAVYYCAAWYVPGYLVDSDYWGQGTQVTVSS | high polyreactivity |
| QVQLVESGGGLVQAGGSLRLSCAASGSTFVQYAMGWYRQAPGKERELVAAITSGGRTNYADSVKGRFTISRDNAKNTVYLQMNSLKPEDTAVYYCAARYGSNSPRGYEYYYWGQGTQVTVSS | low polyreactivity |
| QVQLVESGGGLVQAGGSLRLSCAASGFTFYLYTMGWYRQAPGKERELVAAISWRGGGTYYADSVKGRFTISRDNAKNTVYLQMNSLKPEDTAVYYCAAYWRRRLDYYYWGQGTQVTVSS | high polyreactivity |
| QVQLVESGGGLVQAGGSLRLSCAASGFIFPGYAMGWYRQAPGKERELVAAISVSGGSTFYADSVKGRFTISRDNAKYTVYLQMNSLKPEDTAVYYCNARGYTWSYPLGIRVRYDYWGQGTQVTVSS | high polyreactivity |
| QVQLVESGGGLVQAGGRLPLSCAASGFIFGDYTMGWYRQAPGKERELVASISRRGGSTTYADSVKGRFTISRDNAMNTVYLQMNSLKPEDTAVYYCAARSRPSGSYNRHGPVDYWGQGTQVTVSS | high polyreactivity |
| QGQLVESGGGLVQAGGSLRLSCAASGFTFWYYAKGWSRQAPRKEREMVAVINTSGASTYADSVKGRFTISRDNAKITVDLQMNSLKPEDTAVYYCAAEGIATYPYDYWGHGTQVTVSS | low polyreactivity |
| QVQLVESGGGLVQAGGSLRLSCAASGLIFAFYAMGWYRQAPVKERELVASIDKSGGSTYADSVKGRFTISRDNAKNTVYLQMNSLKQEDTAVYYCAADYSLIDLFYWGQGTQVTVSS | low polyreactivity |
| QVQLVESGGGLVQAGGSLRLSCAASGSTFTLYAMGGYIQAPGKERELVAAITSDDSTYYADSVKGRFTISRDNAKNTVYLQMNSLKPEDTAVYYCAADVYYGDFEMDYWGQGTQVTVSS | low polyreactivity |
| QVQLVESGGGLVQAGGSLRLSFAASGGTFYTYVMGWYRQAPGKERELVAAISGSGGSTYYADSVKGRFTISRDNAKNTVYLQMNSLKPEDTAVYYCAAEGFVTWYRQGQVYYWGQGTQVTVSS | high polyreactivity |
| QVQLVESGGGLVQAGGSLRLSCAASGIIFIGNAMGWYRQAPGKERELVAAISSDGDSTYYADSVKGRFTISRDNAKNTVYLQMNSLKPEDTAVYYCAKDYYPDYYGLYLWPFDYWGQGTQVTVSS | high polyreactivity |
| QVQLVESGGGLVQAGGSLRLSCAASGFTFKYYAMGWYRQAPGKERELVAAITWSGGSTYYADSVKGRFTISRDNAKNTVYLQMNSLKPEDTAVYYCNAKVYQISRYGYWGQGTQVTVSS | high polyreactivity |
| QVQLVESGGGLVQAGGSLRLSCAASGGTFWSYAMGCYRQAPGKEREFVAAITTSAGRTNYADSVKGRFTISRDNAKNTVYLQMNSLKPEDTAVYYCAARSAYPGLGYGFDYWGQGTQVTVSS | low polyreactivity |
| QDQLVESGGCLVQAGGSLRLSCAAYGSTFYRYTMGWYRQAPGKERELVAAISRSGGRTYYADSVKGRFTLSRDNAKNTVFVQINSLKPEDTAVYYCNAEIASSAVQAQEGDYWGQGTQVTVSS | high polyreactivity |
| QFQLVESGGGLVQAGGSLRLSCAASGNTFYGYARGWYRQAPGKDRELVATMTGSGGDTYYADSVKGRFTISRDNANYTVYLPMNSLKPEDTAVYYCNAVEYYGGYPGTDYSYLAYNYWGQGTKVTVSS | low polyreactivity |
| QVHLVESGGGLVQAGGSLRLSCAASGLTFQYYAMGWYRQAPGKQRELVAAISSRGGRTYYADSVKGRFTISRDNAKNTVYLQMNSLKPEDTAVYYCAAEWWAPDRVTRGRIYGYWGQGTQVTVSS | high polyreactivity |
| QVHLVESGGGLVQAGGSLRLTCAASGGIFHINAMGWYRQAPGKERELVAAITRTTITYADSVKGRFTISRDNAKYTVYLQMNRLKLEDSAVYYCAARDKRTPSGVEITGYDYWGQGSQVTVSS | low polyreactivity |
